Experimental data: patent US6339069

T1: N-acetyl-alanyl-alanyl-dioleoyl phosphatidylethanolamine
T1 chain: AA

T2: MeO-suc-ala-ala-pro-val-DOPE (1,2-Dioleoyl-sn-glycero-3-phosphoethanolamido-val-pro-ala-ala-sucMeO)
T2 chain: AAPV

B1: proteinase K (protein)
chain: AAQTNAPWGLARISSTSPGTSTYYYDESAGQGSCVYVIDTGIEASHPEFEGRAQMVKTYYYSSRDGNGHGTHCAGTVGSRTYGVAKKTQLFGVKVLDDNGSGQYSTIIAGMDFVASDKNNRNCPKGVVASLSLGGGYSSSVNSAAARLQSSGVMVAVAAGNNNADARNYSPASEPSVCTVGASDRYDRRSSFSNYGSVLDIFGPGTSILSTWIGGSTRSISGTSMATPHVAGLAAYLMTLGKTTAASACRYIADTANKGDLSNIPFGTVNLLAYNNYQA
B2: Human leukocyte elastase (protein)
chain: IVGGRRARPHAWPFMVSLQLRGGHFCGATLIAPNFVMSAAHCVANVNVRAVRVVLGAHNLSRREPTRQVFAVQRIFENGYDPVNLLNDIVILQLNGSATINANVQVAQLPAQGRRLGNGVQCLAMGWGLLGRNRGIASVLQELNVTVVTSLCRRSNVCTLVRGRQAGVCFGDSGSPLVCNGLIHGIASFVRGGCASGLYPDAFAPVAQFVNWIDSIIQ

Columns and labels:
[1] = target: T1, N-acetyl-alanyl-alanyl-dioleoyl …
[2] = target: T2, MeO-suc-ala-ala-pro-val-DOPE …

Protein	cleavage of N-Ac-AA-DOPE to DOPE, TLC [1]	cleavage of N-Ac-AA-DOPE, HPLC [1]	cleavage of N-Ac-ala-ala-DOPE, HPLC [1]	conversion of N-acetyl-ala-ala-DOPE to DOPE, 31P NMR integration [1]	cleavage of MeO-suc-ala-ala-pro-val-DOPE, TLC, HLE dose titration [2]	conversion of MeO-suc-AAPV-DOPE to DOPE, 31P-NMR [2]	conversion of exposed (outer leaflet) MeO-suc-AAPV-DOPE to DOPE, 31P-NMR, assuming unilamellar vesicles [2]	kinetics of cleavage of MeO-suc-ala-ala-pro-val-DOPE, TLC [2]
B1	Upon incubation of N-Ac-AA-DOPE liposomes with proteinase K the peptide-lipid was cleaved and DOPE was generated	Both elastase and proteinase K cleaved N-Ac-AA-DOPE to a similar extent	both proteinase K, with a known cleavage site, and the nonspecific mixture of proteases found in pronase, effected cleavage of N-Ac-ala-ala-DOPE from the liposomes	approximately 20% of the N-acetyl-ala-ala-DOPE was converted to pure DOPE in sample B	–	–	–	–
B2	Treatment of N-Ac-AA-DOPE liposomes with elastase generated a product corresponding to DOPE	Both elastase and proteinase K cleaved N-Ac-AA-DOPE to a similar extent	–	–	between 5-40 micrograms of HLE were effective in cleaving the AAPV-PE	Treatment with 5 micrograms of elastase/100 nmol lipid yielded 20% DOPE	the minimal percentage conversion of exposed MeO-suc-AAPV-DOPE (SEQ ID NO:42) to DOPE in the outer leaflet lipid of this preparation was 40%	The peptide was cleaved by HLE in as little as 1 hour at 37 degrees C.
